# Assay results as given in publication PMC10388305, “Synthesis and Evaluation of a Monomethyl Auristatin E—Integrin αvβ6 Binding Peptide–Drug Conjugate for Tumor Targeted Drug Delivery” (Journal of Medicinal Chemistry, 2023).
# Like-named read-outs stand apart in the source and are kept apart here.
# Assay: Biodistribution, paired DX3puroβ6/DX3puro xenograft tumor mouse model
# Assay type: in vivo, mice
# Settings: female, athymic nude, iv, total radioactivity, γ-counter, mean ± SD; for tissue uptake at 4 h / tissue uptake at 24 h / tissue uptake at 48 h: i.v.
# Method: The biodistribution of [^64Cu]PDC-1 confirmed the αvβ6-selective tumor accumulation, with 4.46 ± 0.91% ID/g in the DX3puroβ6 (+) tumor at 4 h vs 0.56 ± 0.12% ID/g in the DX3puro (−) tumor (ratio = 8:1; Figure 6A, Table S3). […] For the BxPC-3 tumor, the uptake went from 4.61 ± 1.44% ID/g at 4 h to 3.73 ± 0.44 and 2.93 ± 0.80% ID/g, at 24 and 48 h, respectively (4 to 48 h: P = 0.054; Figure 6). […] Clearance from the blood was rapid, resulting in αvβ6 (+) tumor/blood ratios of ≥32:1 at 4 h (Table S5). [^64Cu]PDC-1 primarily cleared through the kidneys, from 50 to 64% ID/g at 4 h to ≤25% ID/g at 48 h (Figure 6). […] Accumulation in the liver remained steady between 1.5 and 2.2% ID/g at 4 to 48 h, and uptake in other organs such as muscle (≤0.9% ID/g) and pancreas (≤0.5% ID/g) was low at all time points (Figure 6).
# All animal procedures conformed to the Animal Welfare Act and were approved by the University of California Davis Institutional Animal Care and Use Committee. All mice used for in vivo work were female athymic nude mice (6–8 weeks old) purchased from Charles River Laboratories (Wilmington, MA). For PET imaging and biodistribution studies, female athymic nude mice (6–8 weeks old) were injected subcutaneously with 3 × 10^6 DX3puro and 3 × 10^6 DX3puroβ6 cells in serum free DMEM on the right and left flank, respectively, or with 5 × 10^6 BxPC-3 cells in serum free RPMI 1640/Matrigel (1/1 v/v). Studies commenced once tumors reached a maximum diameter of ∼0.5 cm, approximately 3 weeks after inoculation. Food and water were available ad libitum. [^64Cu]PDC-1 was formulated in isotonic 0.9% saline to pH = 7.2 and administered intravenously (i.v.) via a catheter into the tail vein.
# Aliquots of the formulated [^64Cu]PDC-1 in isotonic 0.9% saline (4.81–5.74 MBq, 1.7–2.1 μg, 0.26–0.31 nmol, 100 μL, pH 7.2) were injected i.v. as described above. Following the conscious uptake period, the mice were anesthetized (5% isoflurane), euthanized, and dissected (n ≥ 3/model/time point [4, 24, and 48 h]; the 48 h time point also included the imaging animals sacrificed after the PET scans). Tissues were collected, washed, weighed, and radioactivity measured in a γ-counter. Calibrated, decay-corrected radioactivity was expressed as the percentage of injected dose per gram of tissue (% ID/g). Data are reported as mean ± SD. The mean weights and standard deviation of the DX3puroβ6/DX3puro paired tumor model biodistribution mice were 24.3 ± 1.4 g at 4 h, 28.2 ± 2.9 g at 24 h, and 27.7 ± 2.6 g at 48 h. The mean weights and standard deviation of the BxPC-3 tumor model biodistribution mice were 25.1 ± 1.9 g at 4 h, 27.0 ± 1.1 g at 24 h and 27.1 ± 3.2 g at 48 h. For in vivo blocking studies, DOTA-2 (50 mg/kg, 205 nmol, 1.4 mg in 100 μL 0.9% saline) was injected i.v. into two animals/tumor model 10 min prior to [^64Cu]PDC-1. The animals were sacrificed after 4 h, tissues collected, washed, weighed, and radioactivity measured in a γ-counter. The mean weights and standard deviation for the blocking mice were 24.6 ± 0 and 27.9 ± 0.3 g for the DX3puroβ6/DX3puro paired and BxPC-3 tumor models, respectively.
# Biodistribution data of [64Cu]PDC-1 in paired DX3puroβ6/DX3puro tumor model.
# Table S3. Biodistribution of [ 64Cu]PDC-1 in mice bearing paired DX3puroβ6/DX3puro xenograft tumors.
# Tissue uptake is expressed as the mean of the percentage of injected dose per gram of tissue ± standard
# deviation (n = 4/ time point; n = 9 at 48 h); an = 3, bn = 8, cn = 7.
structure (smiles),measurement,setting,value
"CC[C@H](C)[C@@H]([C@@H](CC(=O)N1CCC[C@H]1[C@H](OC)[C@@H](C)C(=O)N[C@H](C)[C@@H](O)c1ccccc1)OC)N(C)C(=O)[C@@H](NC(=O)[C@H](C(C)C)N(C)C(=O)OCc1ccc(NC(=O)[C@H](CCCNC(N)=O)NC(=O)[C@@H](NC(=O)CCOCCOCCNC(=O)CCN2C(=O)CC(SC[C@H](NC(=O)CN3CCN(CC(=O)O)CCN(CC(=O)O)CCN(CC(=O)O)CC3)C(=O)NCCOCCOCCOCCOCCOCCOCCOCCOCCOCCOCCOCCOCCOCCOCCOCCOCCOCCOCCOCCOCCOCCOCCOCCOCCOCCOCCOCCOCCC(=O)N[C@@H](CC(N)=O)C(=O)N[C@@H](C)C(=O)N[C@H](C(=O)N3CCC[C@H]3C(=O)N[C@@H](CC(N)=O)C(=O)N[C@@H](CC(C)C)C(=O)N[C@@H](CCCNC(=N)N)C(=O)NCC(=O)N[C@@H](CC(=O)O)C(=O)N[C@@H](CC(C)C)C(=O)N[C@@H](CCC(N)=O)C(=O)N[C@H](C(=O)N[C@@H](CC(C)C)C(=O)N[C@@H](C)C(=O)N[C@@H](CCC(N)=O)C(=O)N[C@@H](CCCNC(=N)N)C(=O)N[C@H](C(=O)N[C@@H](C)C(=O)N[C@@H](CCCNC(=N)N)C(=O)N[C@H](C(=O)NCCOCCOCCOCCOCCOCCOCCOCCOCCOCCOCCOCCOCCOCCOCCOCCOCCOCCOCCOCCOCCOCCOCCOCCOCCOCCOCCOCCOCCC(N)=O)[C@@H](C)O)C(C)C)C(C)C)C(C)C)C2=O)C(C)C)cc1)C(C)C (stereo partly drawn) [[^64Cu]PDC-1, metal not drawn]",tissue uptake at 4 h,"DX3puro (αvβ6 −) tumor, 4 h p.i., n = 4, read-out: DX3puro (αvβ6 −) tumor uptake",0.56 ± 0.12 %ID/g
same,tissue uptake at 24 h,"DX3puro (αvβ6 −) tumor, 24 h p.i., n = 3, read-out: DX3puro (αvβ6 −) tumor uptake",1.03 ± 0.12 %ID/g
same,tissue uptake at 48 h,"DX3puro (αvβ6 −) tumor, 48 h p.i., n = 8, read-out: DX3puro (αvβ6 −) tumor uptake",0.74 ± 0.2 %ID/g
same,tissue uptake at 4 h,"DX3puroβ6 (αvβ6 +) tumor, 4 h p.i., n = 4, read-out: DX3puroβ6 (αvβ6 +) tumor uptake",4.46 ± 0.91 %ID/g
same,tissue uptake at 24 h,"DX3puroβ6 (αvβ6 +) tumor, 24 h p.i., n = 4, read-out: DX3puroβ6 (αvβ6 +) tumor uptake",3.39 ± 0.56 %ID/g
same,tissue uptake at 48 h,"DX3puroβ6 (αvβ6 +) tumor, 48 h p.i., n = 9, read-out: DX3puroβ6 (αvβ6 +) tumor uptake",2.53 ± 0.37 %ID/g
same,tissue uptake at 4 h,"bladder, 4 h p.i., n = 4, read-out: Bladder uptake",2.12 ± 0.62 %ID/g
same,tissue uptake at 24 h,"bladder, 24 h p.i., n = 4, read-out: Bladder uptake",1.65 ± 0.44 %ID/g
same,tissue uptake at 48 h,"bladder, 48 h p.i., n = 9, read-out: Bladder uptake",1.66 ± 0.28 %ID/g
same,tissue uptake at 4 h,"blood, 4 h p.i., n = 4, read-out: Blood uptake",0.14 ± 0.02 %ID/g
same,tissue uptake at 24 h,"blood, 24 h p.i., n = 4, read-out: Blood uptake",0.29 ± 0.03 %ID/g
same,tissue uptake at 48 h,"blood, 48 h p.i., n = 9, read-out: Blood uptake",0.34 ± 0.09 %ID/g
same,tissue uptake at 4 h,"bone, 4 h p.i., n = 4, read-out: Bone uptake",0.43 ± 0.18 %ID/g
same,tissue uptake at 24 h,"bone, 24 h p.i., n = 4, read-out: Bone uptake",0.38 ± 0.08 %ID/g
same,tissue uptake at 48 h,"bone, 48 h p.i., n = 9, read-out: Bone uptake",0.33 ± 0.1 %ID/g
same,tissue uptake at 4 h,"brain, 4 h p.i., n = 4, read-out: Brain uptake",0.04 ± 0.01 %ID/g
same,tissue uptake at 24 h,"brain, 24 h p.i., n = 4, read-out: Brain uptake",0.07 ± 0.01 %ID/g
same,tissue uptake at 48 h,"brain, 48 h p.i., n = 9, read-out: Brain uptake",0.09 ± 0.03 %ID/g
same,tissue uptake at 4 h,"gall bladder, 4 h p.i., n = 4, read-out: Gall bladder uptake",3.64 ± 0.79 %ID/g
same,tissue uptake at 24 h,"gall bladder, 24 h p.i., n = 4, read-out: Gall bladder uptake",3.16 ± 0.49 %ID/g
same,tissue uptake at 48 h,"gall bladder, 48 h p.i., n = 9, read-out: Gall bladder uptake",1.42 ± 0.63 %ID/g
same,tissue uptake at 4 h,"heart, 4 h p.i., n = 4, read-out: Heart uptake",0.82 ± 0.17 %ID/g
same,tissue uptake at 24 h,"heart, 24 h p.i., n = 4, read-out: Heart uptake",0.84 ± 0.15 %ID/g
same,tissue uptake at 48 h,"heart, 48 h p.i., n = 9, read-out: Heart uptake",0.85 ± 0.18 %ID/g
same,tissue uptake at 4 h,"kidney, 4 h p.i., n = 4, read-out: Kidney uptake",63.9 ± 12.5 %ID/g
same,tissue uptake at 24 h,"kidney, 24 h p.i., n = 4, read-out: Kidney uptake",41.2 ± 4.47 %ID/g
same,tissue uptake at 48 h,"kidney, 48 h p.i., n = 9, read-out: Kidney uptake",22.9 ± 5.48 %ID/g
same,tissue uptake at 4 h,"large intestines, 4 h p.i., n = 4, read-out: Lg. Intestines uptake",6.25 ± 0.74 %ID/g
same,tissue uptake at 24 h,"large intestines, 24 h p.i., n = 4, read-out: Lg. Intestines uptake",3.98 ± 0.83 %ID/g
same,tissue uptake at 48 h,"large intestines, 48 h p.i., n = 9, read-out: Lg. Intestines uptake",3.04 ± 0.73 %ID/g
same,tissue uptake at 4 h,"liver, 4 h p.i., n = 4, read-out: Liver uptake",1.34 ± 0.29 %ID/g
same,tissue uptake at 24 h,"liver, 24 h p.i., n = 4, read-out: Liver uptake",2.25 ± 0.59 %ID/g
same,tissue uptake at 48 h,"liver, 48 h p.i., n = 9, read-out: Liver uptake",2.15 ± 0.62 %ID/g
same,tissue uptake at 4 h,"lung, 4 h p.i., n = 4, read-out: Lung uptake",3.08 ± 0.78 %ID/g
same,tissue uptake at 24 h,"lung, 24 h p.i., n = 4, read-out: Lung uptake",2.19 ± 0.42 %ID/g
same,tissue uptake at 48 h,"lung, 48 h p.i., n = 9, read-out: Lung uptake",1.71 ± 0.44 %ID/g
same,tissue uptake at 4 h,"muscle, 4 h p.i., n = 4, read-out: Muscle uptake",0.89 ± 0.11 %ID/g
same,tissue uptake at 24 h,"muscle, 24 h p.i., n = 4, read-out: Muscle uptake",0.56 ± 0.07 %ID/g
same,tissue uptake at 48 h,"muscle, 48 h p.i., n = 9, read-out: Muscle uptake",0.48 ± 0.14 %ID/g
same,tissue uptake at 4 h,"pancreas, 4 h p.i., n = 4, read-out: Pancreas uptake",0.36 ± 0.07 %ID/g
same,tissue uptake at 24 h,"pancreas, 24 h p.i., n = 4, read-out: Pancreas uptake",0.45 ± 0.05 %ID/g
same,tissue uptake at 48 h,"pancreas, 48 h p.i., n = 9, read-out: Pancreas uptake",0.52 ± 0.25 %ID/g
same,tissue uptake at 4 h,"skin, 4 h p.i., n = 4, read-out: Skin uptake",1.96 ± 0.5 %ID/g
same,tissue uptake at 24 h,"skin, 24 h p.i., n = 4, read-out: Skin uptake",1.26 ± 0.36 %ID/g
same,tissue uptake at 48 h,"skin, 48 h p.i., n = 9, read-out: Skin uptake",1 ± 0.34 %ID/g
same,tissue uptake at 4 h,"small intestines, 4 h p.i., n = 4, read-out: Sm. Intestines uptake",4.67 ± 0.66 %ID/g
same,tissue uptake at 24 h,"small intestines, 24 h p.i., n = 4, read-out: Sm. Intestines uptake",2.73 ± 0.28 %ID/g
same,tissue uptake at 48 h,"small intestines, 48 h p.i., n = 9, read-out: Sm. Intestines uptake",1.53 ± 0.21 %ID/g
same,tissue uptake at 4 h,"spleen, 4 h p.i., n = 4, read-out: Spleen uptake",0.21 ± 0.08 %ID/g
same,tissue uptake at 24 h,"spleen, 24 h p.i., n = 4, read-out: Spleen uptake",0.58 ± 0.03 %ID/g
same,tissue uptake at 48 h,"spleen, 48 h p.i., n = 9, read-out: Spleen uptake",0.54 ± 0.12 %ID/g
same,tissue uptake at 4 h,"stomach, 4 h p.i., n = 4, read-out: Stomach uptake",8.97 ± 0.76 %ID/g
same,tissue uptake at 24 h,"stomach, 24 h p.i., n = 4, read-out: Stomach uptake",4.86 ± 0.56 %ID/g
same,tissue uptake at 48 h,"stomach, 48 h p.i., n = 9, read-out: Stomach uptake",3 ± 0.56 %ID/g
same,excreta dose per gram or mL at 4 h,"urine, 4 h p.i., n = 4",13 ± 2.4 %ID/g
same,excreta dose per gram or mL at 24 h,"urine, 24 h p.i., n = 4",4.57 ± 0.87 %ID/g
same,excreta dose per gram or mL at 48 h,"urine, 48 h p.i., n = 7",1.6 ± 0.47 %ID/g
